# PMC4784862, “DNA Sequence Determinants Controlling Affinity, Stability and Shape of DNA Complexes Bound by the Nucleoid Protein Fis”
# B1: INV (dsDNA)
# DNA 1: TTTAAAGTTTGAATTTTGAGCTTTAAA
# DNA 2: TTTAAAGCTCAAAATTCAAACTTTAAA
# B2: F1±9A (dsDNA)
# DNA 1: AAATATGTTTGAATTTTGAGCATATTT
# DNA 2: AAATATGCTCAAAATTCAAACATATTT
# B3: INV±8T (dsDNA)
# DNA 1: TTTAATGTTTGAATTTTGAGCATTAAA
# DNA 2: TTTAATGCTCAAAATTCAAACATTAAA
# B4: F33 (dsDNA)
# DNA 1: AAAGGTGTTTGAATTTTGAGCACCTTT
# DNA 2: AAAGGTGCTCAAAATTCAAACACCTTT
# B5: INV±8G (dsDNA)
# DNA 1: TTTAAGGTTTGAATTTTGAGCCTTAAA
# DNA 2: TTTAAGGCTCAAAATTCAAACCTTAAA
# B6: F16 (dsDNA)
# DNA 1: GCGGTTGTTTGAATTTTGAGCAACCGC
# DNA 2: GCGGTTGCTCAAAATTCAAACAACCGC
# B7: F34 (dsDNA)
# DNA 1: AAGCTTGTTTGAATTTTGAGCAACGTT
# DNA 2: AACGTTGCTCAAAATTCAAACAAGCTT
# B8: INV-GAT (dsDNA)
# DNA 1: TTTGATGTTTGAATTTTGAGCATCAAA
# DNA 2: TTTGATGCTCAAAATTCAAACATCAAA
# B9: F18 (dsDNA)
# DNA 1: AAATTTGTTGGAATTTTCAGCAAATTT
# DNA 2: AAATTTGCTGAAAATTCCAACAAATTT
# B10: F15 (dsDNA)
# DNA 1: CCCTTTGTTTGAATTTTGAGCAAAGGG
# DNA 2: CCCTTTGCTCAAAATTCAAACAAAGGG
# B11: F1 (±8T) (dsDNA)
# DNA 1: AAATTTGTTTGAATTTTGAGCAAATTT
# DNA 2: AAATTTGCTCAAAATTCAAACAAATTT
# B12: F1±8A (dsDNA)
# DNA 1: AAATTAGTTTGAATTTTGAGCTAATTT
# DNA 2: AAATTAGCTCAAAATTCAAACTAATTT
# B13: INV±9-10T (dsDNA)
# DNA 1: TTTATTGTTTGAATTTTGAGCAATAAA
# DNA 2: TTTATTGCTCAAAATTCAAACAATAAA
# B14: F32 (dsDNA)
# DNA 1: AAATTTGGAGGAATTTTCTCCAAATTT
# DNA 2: AAATTTGGAGAAAATTCCTCCAAATTT
# B15: INV±8C (dsDNA)
# DNA 1: TTTAACGTTTGAATTTTGAGCGTTAAA
# DNA 2: TTTAACGCTCAAAATTCAAACGTTAAA
# B16: F1±8U (dsDNA)
# DNA 1: AAATTUGTTTGAATTTTGAGCAAATTT
# DNA 2: AAATTUGCTCAAAATTCAAACAAATTT
# modifications: deoxyuridine for T at ±8 in DNA
# B17: F1±8G (dsDNA)
# DNA 1: AAATTGGTTTGAATTTTGAGCCAATTT
# DNA 2: AAATTGGCTCAAAATTCAAACCAATTT
# B18: F28 (dsDNA)
# DNA 1: AAATTTGTTTGAGCGTTGAGCAAATTT
# DNA 2: AAATTTGCTCAACGCTCAAACAAATTT
# B19: F36 (dsDNA)
# DNA 1: AAATTTGTTTGAATCTCGAGCAAATTT
# DNA 2: AAATTTGCTCGAGATTCAAACAAATTT
# B20: F27 (dsDNA)
# DNA 1: AAATTTGTTTGAACTTTGAGCAAATTT
# DNA 2: AAATTTGCTCAAAGTTCAAACAAATTT
# B21: INV-CAT (dsDNA)
# DNA 1: TTTCATGTTTGAATTTTGAGCATGAAA
# DNA 2: TTTCATGCTCAAAATTCAAACATGAAA
# B22: F31 (dsDNA)
# DNA 1: AAATTTGTAGGAATTTTCTGCAAATTT
# DNA 2: AAATTTGCAGAAAATTCCTACAAATTT
# B23: F1±8C (dsDNA)
# DNA 1: AAATTCGTTTGAATTTTGAGCGAATTT
# DNA 2: AAATTCGCTCAAAATTCAAACGAATTT
# B24: F35 (dsDNA)
# DNA 1: AAATTAGTTTGAATCTCGAGCTAATTT
# DNA 2: AAATTAGCTCGAGATTCAAACTAATTT
# B25: F14 (dsDNA)
# DNA 1: GGGTTTGTTTGAATTTTGAGCAAACCC
# DNA 2: GGGTTTGCTCAAAATTCAAACAAACCC
# Columns and labels:
# Conditions in all cases: protein: recombinant; chain copies: 2; label: 5'-32P
# Fis WT [1] = biological target: T1, Fis WT (UniProt P0A6R3 1-98); experiment: EMSA; t1/2 <0.25 min; EMSA: 20 mM Hepes pH 7.5, 0.15 M NaCl, 5% glycerol, 0.5 mg/ml BSA, 1 mM EDTA, 1 mM DTT, 0.1 nM 32P 27 bp probe, 50 ug/ml poly dI/dC; temperature not stated
# Fis WT [2] = biological target: T1, Fis WT; experiment: EMSA; t1/2 22 min; EMSA: 20 mM Hepes pH 7.5, 0.15 M NaCl, 5% glycerol, 0.5 mg/ml BSA, 1 mM EDTA, 1 mM DTT, 0.1 nM 32P 27 bp probe, 50 ug/ml poly dI/dC; temperature not stated
# Fis WT [3] = biological target: T1, Fis WT; experiment: EMSA; t1/2 4 min; EMSA: 20 mM Hepes pH 7.5, 0.15 M NaCl, 5% glycerol, 0.5 mg/ml BSA, 1 mM EDTA, 1 mM DTT, 0.1 nM 32P 27 bp probe, 50 ug/ml poly dI/dC; temperature not stated
# Fis WT [4] = biological target: T1, Fis WT; experiment: EMSA; fold printed as 6; EMSA: 20 mM Hepes pH 7.5, 0.15 M NaCl, 5% glycerol, 0.5 mg/ml BSA, 1 mM EDTA, 1 mM DTT, 0.1 nM 32P 27 bp probe, 50 ug/ml poly dI/dC; temperature not stated
# Fis WT [5] = biological target: T1, Fis WT; experiment: EMSA; EMSA: 20 mM Hepes pH 7.5, 0.15 M NaCl, 5% glycerol, 0.5 mg/ml BSA, 1 mM EDTA, 1 mM DTT, 0.1 nM 32P 27 bp probe, 50 ug/ml poly dI/dC; temperature not stated
# Fis WT [6] = biological target: T1, Fis WT; experiment: EMSA; t1/2 8 min; EMSA: 20 mM Hepes pH 7.5, 0.15 M NaCl, 5% glycerol, 0.5 mg/ml BSA, 1 mM EDTA, 1 mM DTT, 0.1 nM 32P 27 bp probe, 50 ug/ml poly dI/dC; temperature not stated
# Fis WT [7] = biological target: T1, Fis WT; experiment: EMSA; t1/2 4 min; EMSA: 20 mM Hepes pH 7.5, 0.15 M NaCl, 5% glycerol, 0.5 mg/ml BSA, 1 mM EDTA, 1 mM DTT, 0.1 nM 32P 27 bp probe, 50 ug/ml poly dI/dC; temperature not stated; remark: listed apart in the source
# Fis WT [8] = biological target: T1, Fis WT; experiment: EMSA; t1/2 41 min; Table 3 gives error 0.05; EMSA: 20 mM Hepes pH 7.5, 0.15 M NaCl, 5% glycerol, 0.5 mg/ml BSA, 1 mM EDTA, 1 mM DTT, 0.1 nM 32P 27 bp probe, 50 ug/ml poly dI/dC; temperature not stated
# Fis T75A [9] = biological target: T2, Fis T75A (UniProt P0A6R3 1-98, T75A); experiment: EMSA; error as printed; EMSA: 20 mM Hepes pH 7.5, 0.15 M NaCl, 5% glycerol, 0.5 mg/ml BSA, 1 mM EDTA, 1 mM DTT, 0.1 nM 32P 27 bp probe, 50 ug/ml poly dI/dC; temperature not stated
# Fis R71A = Fis R71A (UniProt P0A6R3 1-98, R71A); experiment: EMSA; EMSA: 20 mM Hepes pH 7.5, 0.15 M NaCl, 5% glycerol, 0.5 mg/ml BSA, 1 mM EDTA, 1 mM DTT, 0.1 nM 32P 27 bp probe, 50 ug/ml poly dI/dC; temperature not stated
# Fis N73A = Fis N73A (UniProt P0A6R3 1-98, N73A); experiment: as above
# Fis WT [10] = biological target: T1, Fis WT; experiment: X-ray crystallography; EMSA: 20 mM Hepes pH 7.5, 0.15 M NaCl, 5% glycerol, 0.5 mg/ml BSA, 1 mM EDTA, 1 mM DTT, 0.1 nM 32P 27 bp probe, 50 ug/ml poly dI/dC; temperature not stated
# Fis WT [11] = biological target: T1, Fis WT; experiment: X-ray crystallography; 2.8 A; EMSA: 20 mM Hepes pH 7.5, 0.15 M NaCl, 5% glycerol, 0.5 mg/ml BSA, 1 mM EDTA, 1 mM DTT, 0.1 nM 32P 27 bp probe, 50 ug/ml poly dI/dC; temperature not stated
# Fis T75A [12] = biological target: T2, Fis T75A; experiment: EMSA; EMSA: 20 mM Hepes pH 7.5, 0.15 M NaCl, 5% glycerol, 0.5 mg/ml BSA, 1 mM EDTA, 1 mM DTT, 0.1 nM 32P 27 bp probe, 50 ug/ml poly dI/dC; temperature not stated
# Fis WT [13] = biological target: T1, Fis WT; experiment: EMSA; affinity as F1, lifetime increased; EMSA: 20 mM Hepes pH 7.5, 0.15 M NaCl, 5% glycerol, 0.5 mg/ml BSA, 1 mM EDTA, 1 mM DTT, 0.1 nM 32P 27 bp probe, 50 ug/ml poly dI/dC; temperature not stated
# Fis WT [14] = biological target: T1, Fis WT; experiment: X-ray crystallography; 3.5 A, partially refined; EMSA: 20 mM Hepes pH 7.5, 0.15 M NaCl, 5% glycerol, 0.5 mg/ml BSA, 1 mM EDTA, 1 mM DTT, 0.1 nM 32P 27 bp probe, 50 ug/ml poly dI/dC; temperature not stated
# Fis WT [15] = biological target: T1, Fis WT; experiment: X-ray crystallography; 2.7 A; EMSA: 20 mM Hepes pH 7.5, 0.15 M NaCl, 5% glycerol, 0.5 mg/ml BSA, 1 mM EDTA, 1 mM DTT, 0.1 nM 32P 27 bp probe, 50 ug/ml poly dI/dC; temperature not stated
# Fis WT [16] = biological target: T1, Fis WT; experiment: EMSA; t1/2 14 min; EMSA: 20 mM Hepes pH 7.5, 0.15 M NaCl, 5% glycerol, 0.5 mg/ml BSA, 1 mM EDTA, 1 mM DTT, 0.1 nM 32P 27 bp probe, 50 ug/ml poly dI/dC; temperature not stated
# Fis WT [17] = biological target: T1, Fis WT; experiment: X-ray crystallography; 2.9 A, C2; EMSA: 20 mM Hepes pH 7.5, 0.15 M NaCl, 5% glycerol, 0.5 mg/ml BSA, 1 mM EDTA, 1 mM DTT, 0.1 nM 32P 27 bp probe, 50 ug/ml poly dI/dC; temperature not stated
# Sequence of Fis R71A (P0A6R3 whole entry R71A): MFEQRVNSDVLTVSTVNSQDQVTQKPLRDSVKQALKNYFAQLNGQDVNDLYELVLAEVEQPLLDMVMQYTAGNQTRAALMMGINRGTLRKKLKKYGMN
# T2 sequence (P0A6R3 whole entry T75A): as the sequence (P0A6R3 whole entry R71A) above, with A71R, T75A counted along it
# T1 sequence (P0A6R3 whole entry): as the sequence (P0A6R3 whole entry R71A) above, with A71R counted along it
# Sequence of Fis N73A (P0A6R3 whole entry N73A): as the sequence (P0A6R3 whole entry R71A) above, with A71R, N73A counted along it
binder,measurement,setting,value
B1,Kd,Fis WT [1],33 ± 3 nM
B2,Kd,Fis WT [2],0.5 ± 0.2 nM
B3,Kd,Fis WT [3],2.3 ± 0.7 nM
B4,Kd,Fis WT [4],0.6 ± 0.1 nM
B5,Kd,Fis WT [5],250 ± 20 nM
B6,Kd,Fis WT [5],0.5 ± 0.2 nM
B7,Kd,Fis WT [6],0.2 ± 0.1 nM
B8,Kd,Fis WT [5],2 ± 0.6 nM
B9,binding signal,Fis WT [7],10 fold weaker than F1
B10,Kd,Fis WT [5],0.4 ± 0.2 nM
B11,Kd,Fis WT [8],0.2 ± 0.07 nM
same,Kd,Fis T75A [9],0.3 ± 0.8 nM
same,Kd,Fis R71A,0.5 ± 0.2 nM
same,Kd,Fis N73A,29 ± 0.2 nM
B12,binding result,Fis WT [10],binds
B13,Kd,Fis WT [5],0.4 ± 0.1 nM
B14,binding result,Fis WT [11],binds
same,Kd,Fis R71A,73 ± 11 nM
same,Kd,Fis T75A [12],76 ± 10 nM
B15,Kd,Fis WT [5],6 ± 2 nM
B16,binding result,Fis WT [13],binds
B17,binding result,Fis WT [10],binds
same,Kd,Fis R71A,450 ± 20 nM
same,Kd,Fis T75A [12],48 ± 5 nM
B18,Kd,Fis R71A,470 ± 100 nM
B19,binding result,Fis WT [14],binds
B20,Kd,Fis WT [5],0.2 ± 0.1 nM
same,Kd,Fis R71A,2.8 ± 0.5 nM
same,Kd,Fis T75A [12],3.5 ± 0.9 nM
B21,Kd,Fis WT [5],2.9 ± 1 nM
B22,binding result,Fis WT [15],binds
B23,Kd,Fis WT [16],0.7 ± 0.2 nM
B24,binding result,Fis WT [17],binds
B25,Kd,Fis WT [5],0.5 ± 0.1 nM
